Values quoted from earlier work as cited in article PMC6784060.

Target: Beclin-1 BH3 (Homo sapiens) (UniProt Q14457)
Chain of UniProt Q14457 (Q14457 107-127): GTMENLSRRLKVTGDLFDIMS

Bcl-xL (from UniProt Q07817)
Kd: 1.7 µM
